# Measurements: the RNAGym collection of RNA variant scans (doi:10.7554/elife.90254)
# B1: LINE1-mini (parent)
# chain: GGCAGAGCUCAACACAGCGUGGCAAAGUGGCUGUGGCUAGACUGCC
# Variants of: B1
# Experiment: self-cleavage, relative activity (ratio to wild type); higher = more cleavage; in vitro, sequencing; the parent is a self-cleaving ribozyme
row,Variant,self-cleavage
1,GGCAGAGCUCGACACAGUGUGGCAAAGUGGCUGUGGCUAGACUGCC,0.04
2,GGCAGAGCUCGACACAGGGUGGCAAAGUGGCUGUGGCUAGACUGCC,0.02
3,GGCAGAGCUCGACACAGAGUGGCAAAGUGGCUGUGGCUAGACUGCC,0.04
4,GGCAGAGCUCGACACAGCGUCGCAAAGUGGCUGUGGCUAGACUGCC,0.02
5,GGCAGAGCUCGACACAGCGUAGCAAAGUGGCUGUGGCUAGACUGCC,0.05
6,GGCAGAGCUCGACACAGCGUUGCAAAGUGGCUGUGGCUAGACUGCC,0.03
7,GGCAGAGCUCUACACAGCGUGGCAAAGUGGCUGUGGCUAGACUGCC,0.15
8,GGCAGAGCUCGACACAGCGCGGCAAAGUGGCUGUGGCUAGACUGCC,0.03
9,GGCAGAGCUCGACACAGCGGGGCAAAGUGGCUGUGGCUAGACUGCC,0.03
10,GGCAGAGCUCGACACAGCGAGGCAAAGUGGCUGUGGCUAGACUGCC,0.04
11,GGCAGAGCUCGACACAGCGUGGGAAAGUGGCUGUGGCUAGACUGCC,0.03
12,GGCAGAGCUCGACACAGCGUGGAAAAGUGGCUGUGGCUAGACUGCC,0.04
13,GGCAGAGCUCGACACAGCGUGGUAAAGUGGCUGUGGCUAGACUGCC,0.02
14,GGCAGAGCUCGACAAAGCGUGGCAAAGUGGCUGUGGCUAGACUGCC,0.02
15,GGCAGAGCUCGACAUAGCGUGGCAAAGUGGCUGUGGCUAGACUGCC,0.03
16,GGCAGAGCUCGACAGAGCGUGGCAAAGUGGCUGUGGCUAGACUGCC,0.03
17,GGCAGAGCUCGACACACCGUGGCAAAGUGGCUGUGGCUAGACUGCC,0.04
18,GGCAGAGCUCGACACAACGUGGCAAAGUGGCUGUGGCUAGACUGCC,0.04
19,GGCAGAGCUCGACACAUCGUGGCAAAGUGGCUGUGGCUAGACUGCC,0.03
20,GGCAGAGCUCGACACAGCGUGGCAAAGUGGCUGUGGCUAGAUUGCC,0.01
21,GGCAGAGCUCGACACAGCGUGGCAAAGUGGCUGUGGCUAGAAUGCC,0.02
22,GGCAGAGCUCGACACAGCGUGGCAAAGUGGCUGUGGCUAGAGUGCC,0.01
23,GGCAGAGCUCGACACAGCGUGGCAAAGUGGCUGUGGCGAGACUGCC,0.02

row,Variant,self-cleavage
1,GGCAGAGCUCGACACAGCGUGGCAAAGUGGCUGUGGCAAGACUGCC,0.02
2,GGCAGAGCUCGACACAGCGUGGCAAAGUGGCUGUGGCCAGACUGCC,0.03
3,GGCAGAGCUCGACACAGCGUGGCAAAGUGGCUGUGCCUAGACUGCC,0.01
4,GGCAGAGCUCGACACAGCGUGGCAAAGUGGCUGUGUCUAGACUGCC,0.02
5,GGCAGAGCUCGACACAGCGUGGCAAAGUGGCUGUGACUAGACUGCC,0.02
6,GGCAGAGCUCUACACAGCGUGGCAAAGUGGCUGUGGCUAGGCUGCC,0.05
7,GGCAGAGCUCUACACAGCGUGGCAAAGUGGCUGUGGCUAGCCUGCC,0.04
8,GGCAGAGCUCGACACAGCGUGGCAAAGUGGGUGUGGCUAGACUGCC,0.03
9,GGCAGAGCUCGACACAGCGUGGCAAAGUGGUUGUGGCUAGACUGCC,0.02
10,GGCAGAGCUCGACACAGCGUGGCAAAGUGGAUGUGGCUAGACUGCC,0.02
11,GGCAGAGCUCGACACAGCGUGGCAAAGUCGCUGUGGCUAGACUGCC,0.3
12,GGCAGAGCUCGACACAGCGUGGCAAAGUAGCUGUGGCUAGACUGCC,0.04
13,GGCAGAGCUCGACACAGCGUGGCAAAGUUGCUGUGGCUAGACUGCC,0.03
14,GGCAGAGCUCUACUCAGCGUGGCAAAGUGGCUGUGGCUAGACUGCC,0.08
15,GGCAGAGCUCUACCCAGCGUGGCAAAGUGGCUGUGGCUAGACUGCC,0.01
16,GGCAGAGCUCUACGCAGCGUGGCAAAGUGGCUGUGGCUAGACUGCC,0.03
17,GGCAGAGCUCUACACAGCGUGGCAAAGUGGCUGUGGCUCGACUGCC,0.07
18,GGCAGAGCUCUACACAGCGUGGCAAAGUGGCUGUGGCUGGACUGCC,0.06
19,GGCAGAGCUCUACACAGCGUGGCAAAGUGGCUGUGGCUUGACUGCC,0.05
20,GGCAGAGCUCGACACAGCGUGGCAAAGUGGCUGUGGCUUGACUGCC,0.05
21,GGCAGAGCUCGACACAGCGUGGCAAAGUGGCUGUGGCUCGACUGCC,0.04
22,GGCAGAGCUCGACACAGCGUGGCAAAGUGGCUGUGGCUGGACUGCC,0.03
23,GGCAGAGCUCGACACAGCGUGGCAAAGUGGCUGUGGCUAGCCUGCC,0.03

row,Variant,self-cleavage
1,GGCAGAGCUCGACACAGCGUGGCAAAGUGGCUGUGGCUAGGCUGCC,0.02
2,GGCAGAGCUCGACACAGCGUGGCAAAGUGGCUGUGGCUAGUCUGCC,0.02
3,GGCAGAGCUCGAAACAGCGUGGCAAAGUGGCUGUGGCUAGACUGCC,0.04
4,GGCAGAGCUCGAGACAGCGUGGCAAAGUGGCUGUGGCUAGACUGCC,0.02
5,GGCAGAGCUCGAUACAGCGUGGCAAAGUGGCUGUGGCUAGACUGCC,0.03
6,GGCAGAGCUCUACACAGCGUGGCACAGUGGCUGUGGCUAGACUGCC,0.11
7,GGCAGAGCUCUACACAGCGUGGCAUAGUGGCUGUGGCUAGACUGCC,0.37
8,GGCAGAGCUCUACACAGCGUGGCAGAGUGGCUGUGGCUAGACUGCC,0.07
9,GGCAGAGCUCGACACAGCGUGGCAAAGUGUCUGUGGCUAGACUGCC,0.04
10,GGCAGAGCUCGACACAGCGUGGCAAAGUGACUGUGGCUAGACUGCC,0.04
11,GGCAGAGCUCGACACAGCGUGGCAAAGUGCCUGUGGCUAGACUGCC,0.04
12,GGCAGAGCUCGACACAGCGUGGCAAAGUGGCUGGGGCUAGACUGCC,0.03
13,GGCAGAGCUCGACACAGCGUGGCAAAGUGGCUGAGGCUAGACUGCC,0.03
14,GGCAGAGCUCGACACAGCGUGGCAAAGUGGCUGCGGCUAGACUGCC,0.03
15,GGCAGAGCUCUACACAGCGUGGCAAUGUGGCUGUGGCUAGACUGCC,0.12
16,GGCAGAGCUCUACACAGCGUGGCAAGGUGGCUGUGGCUAGACUGCC,0.13
17,GGCAGAGCUCUACACAGCGUGGCAACGUGGCUGUGGCUAGACUGCC,0.16
18,GGCAGAGCUCGACACAGCGUGGCAAAGUGGCUGUGGCUAGACUGCG,0.02
19,GGCAGAGCUCGACACAGCGUGGCAAAGUGGCUGUGGCUAGACUGCA,0.04
20,GGCAGAGCUCGACACAGCGUGGCAAAGUGGCUGUGGCUAGACUGCU,0.02
21,GGCAGAGCUCGACACAGCGUGGCAAAGUGGCUGUUGCUAGACUGCC,0.03
22,GGCAGAGCUCGACACAGCGUGGCAAAGUGGCUGUCGCUAGACUGCC,0.02
23,GGCAGAGCUCGACACAGCGUGGCAAAGUGGCUGUAGCUAGACUGCC,0.05

row,Variant,self-cleavage
1,GGCAGAGCUCUGCACAGCGUGGCAAAGUGGCUGUGGCUAGACUGCC,0.03
2,GGCAGAGCUCUUCACAGCGUGGCAAAGUGGCUGUGGCUAGACUGCC,0.07
3,GGCAGAGCUCUCCACAGCGUGGCAAAGUGGCUGUGGCUAGACUGCC,0.04
4,GGCAGAGCUCGACACAGCGUGGCAAAGUGGCUGUGGCUAGACCGCC,0.02
5,GGCAGAGCUCGACACAGCGUGGCAAAGUGGCUGUGGCUAGACGGCC,0
6,GGCAGAGCUCGACACAGCGUGGCAAAGUGGCUGUGGCUAGACAGCC,0.01
7,GGCAGAGCUCGACACAGCGUGACAAAGUGGCUGUGGCUAGACUGCC,0.03
8,GGCAGAGCUCGACACAGCGUGCCAAAGUGGCUGUGGCUAGACUGCC,0.02
9,GGCAGAGCUCGACACAGCGUGUCAAAGUGGCUGUGGCUAGACUGCC,0.05
10,GGCAGAGCUCGACACAGCGUGGCAAAGUGGCUUUGGCUAGACUGCC,0.03
11,GGCAGAGCUCGACACAGCGUGGCAAAGUGGCUCUGGCUAGACUGCC,0.03
12,GGCAGAGCUCGACACAGCGUGGCAAAGUGGCUAUGGCUAGACUGCC,0.03
13,GGCAGAGCUCGACACAGCGUGGCAAAGUGGCUGUGGCUAGACUUCC,0.01
14,GGCAGAGCUCGACACAGCGUGGCAAAGUGGCUGUGGCUAGACUACC,0.03
15,GGCAGAGCUCGACACAGCGUGGCAAAGUGGCUGUGGCUAGACUCCC,0.03
16,GGCAGAGCUCUACACAGCGUGGCCAAGUGGCUGUGGCUAGACUGCC,0.15
17,GGCAGAGCUCUACACAGCGUGGCUAAGUGGCUGUGGCUAGACUGCC,0.21
18,GGCAGAGCUCUACACAGCGUGGCGAAGUGGCUGUGGCUAGACUGCC,0.15
19,GGCAGAGCUCGACACAGCGUGGCAAAGUGGCUGUGGAUAGACUGCC,0.02
20,GGCAGAGCUCGACACAGCGUGGCAAAGUGGCUGUGGUUAGACUGCC,0.05
21,GGCAGAGCUCGACACAGCGUGGCAAAGUGGCUGUGGGUAGACUGCC,0.03
22,GGCAGAGCUCGACACAGCGUGGCAAAGUGGCUGUGGCUAGACUGAC,0.03
23,GGCAGAGCUCGACACAGCGUGGCAAAGUGGCUGUGGCUAGACUGUC,0.03

row,Variant,self-cleavage
1,GGCAGAGCUCGACACAGCGUGGCAAAGUGGCUGUGGCUAGACUGGC,0.03
2,GGCAGAGCUCGACACAGCGUGGCAAAGUGGCAGUGGCUAGACUGCC,0.02
3,GGCAGAGCUCGACACAGCGUGGCAAAGUGGCGGUGGCUAGACUGCC,0.03
4,GGCAGAGCUCGACACAGCGUGGCAAAGUGGCCGUGGCUAGACUGCC,0.04
5,GGCAGAGCUCGACACAGCGUGGCAAUGUGGCUGUGGCUAGACUGCC,0.02
6,GGCAGAGCUCUACACUGCGUGGCAAAGUGGCUGUGGCUAGACUGCC,0.03
7,GGCAGAGCUCUACACCGCGUGGCAAAGUGGCUGUGGCUAGACUGCC,0.02
8,GGCAGAGCUCUACACGGCGUGGCAAAGUGGCUGUGGCUAGACUGCC,0.04
9,GGCAGAGCUCGACACAGCGUGGCAAAGUGGCUGUGGCUAAACUGCC,0.03
10,GGCAGAGCUCGACACAGCGUGGCAAAGUGGCUGUGGCUAUACUGCC,0.03
11,GGCAGAGCUCGACACAGCGUGGCAAAGUGGCUGUGGCUACACUGCC,0.02
12,GGCAGAGCUCGACACAGCGUGGCAAAGCGGCUGUGGCUAGACUGCC,0.03
13,GGCAGAGCUCGACACAGCGUGGCAAAGAGGCUGUGGCUAGACUGCC,0.03
14,GGCAGAGCUCGACACAGCGUGGCAAAGGGGCUGUGGCUAGACUGCC,0.02
15,GGCAGAGCUCGACACAGCUUGGCAAAGUGGCUGUGGCUAGACUGCC,0.02
16,GGCAGAGCUCGACACAGCCUGGCAAAGUGGCUGUGGCUAGACUGCC,0.03
17,GGCAGAGCUCGACACAGCAUGGCAAAGUGGCUGUGGCUAGACUGCC,0.04
18,GGCAGAGCUCGACACAGCGUGGCAAAUUGGCUGUGGCUAGACUGCC,0.03
19,GGCAGAGCUCGACACAGCGUGGCAAACUGGCUGUGGCUAGACUGCC,0.03
20,GGCAGAGCUCGACACAGCGUGGCAAAAUGGCUGUGGCUAGACUGCC,0.02
